# T1: ALK-5 (activin receptor like kinase 5), human TGF-β type I receptor (human, UniProt P36897 25-503)
# T1 construct: Expressed from cDNA in COS-1 cells and PAE cells (PAE/TβR-I), or endogenous in human cell lines (AG1518, A549, HSC-2, HUVEC); also called hALK-5; clone EMBLA
# T1 sequence: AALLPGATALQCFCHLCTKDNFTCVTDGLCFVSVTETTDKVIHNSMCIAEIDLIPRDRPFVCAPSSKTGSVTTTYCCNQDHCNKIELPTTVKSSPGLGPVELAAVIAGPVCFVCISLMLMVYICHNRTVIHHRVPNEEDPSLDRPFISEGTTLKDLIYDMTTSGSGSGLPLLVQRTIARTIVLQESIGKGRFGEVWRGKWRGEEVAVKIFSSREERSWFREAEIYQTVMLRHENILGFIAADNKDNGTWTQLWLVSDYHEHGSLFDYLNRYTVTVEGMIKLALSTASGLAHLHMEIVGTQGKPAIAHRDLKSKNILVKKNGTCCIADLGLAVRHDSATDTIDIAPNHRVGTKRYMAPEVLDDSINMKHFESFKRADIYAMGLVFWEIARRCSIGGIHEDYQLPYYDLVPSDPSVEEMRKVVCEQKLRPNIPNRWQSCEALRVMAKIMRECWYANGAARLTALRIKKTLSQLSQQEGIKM
# B1: Recombinant human activin A (ligand, UniProt P08476 311-426, looked up)
# chain: GLECDGKVNICCKKQFFVSFKDIGWNDWIIAPSGYHANYCEGECPSHIAGTSGSSLSFHSTVINHYRMRGHSPFANLKSCCVPTKLRPMSMLYYDDGQNIIKKDIQNMIVEECGCS
# modifications: 125I-iodinated (chloramine T method)
# Legend:
# [1] = molecular target: T1, ALK-5 (activin receptor like kinase 5), …; test: affinity cross-linking followed by immunoprecipitation, COS-1 cells co-transfected with ActR-II and the ALK
# [2] = molecular target: T2, ALK-6 (activin receptor like kinase 6), mouse (mouse, UniProt P36898 14-502); test: as above
# T2 construct: Expressed from cDNA in COS-1 cells; also called mALK-6; clone ME-6
# T2 sequence (P36898 14-502 limits assumed): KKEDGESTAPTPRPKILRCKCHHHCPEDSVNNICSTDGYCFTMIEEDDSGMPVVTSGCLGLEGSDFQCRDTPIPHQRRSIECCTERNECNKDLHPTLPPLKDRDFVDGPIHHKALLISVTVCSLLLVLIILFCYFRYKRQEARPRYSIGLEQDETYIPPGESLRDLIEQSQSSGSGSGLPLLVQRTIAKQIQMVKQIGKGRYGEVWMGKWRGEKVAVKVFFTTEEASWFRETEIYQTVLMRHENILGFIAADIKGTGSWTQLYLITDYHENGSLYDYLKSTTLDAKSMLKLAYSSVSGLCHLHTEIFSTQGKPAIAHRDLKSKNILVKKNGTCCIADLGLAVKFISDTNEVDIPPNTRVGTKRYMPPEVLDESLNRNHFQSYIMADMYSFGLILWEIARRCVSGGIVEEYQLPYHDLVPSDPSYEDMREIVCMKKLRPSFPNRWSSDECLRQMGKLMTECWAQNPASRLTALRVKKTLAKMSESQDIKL
binder,measurement,setting,value
B1,binding result,[1],binds
same,binding result,[2],binds
